B1: Lysozyme C, P61626 (parent)
chain: MKALIVLGLVLLSVTVQGKVFERCELARTLKRLGMDGYRGISLANWMCLAKWESGYNTRATNYNAGDRSTDYGIFQINSRYWCNDGKTPGAVNACHLSCSALLQDNIADAVACAKRVVRDPQGIRAWVAWRNRCQNRDVRQYVQGCGV

Variants of: B1
Settings: Homo sapiens; pH 2.51; Thermal; DSC; glycine-HCl 0.05 M; reversible: yes; structure 1LZ1; whole UniProt chain shown

| Variant | Tm [°C] | unfolding enthalpy (calorimetric) [kcal/mol] | unfolding enthalpy (van 't Hoff) [kcal/mol] |
| --- | --- | --- | --- |
| MKALIVLGLVLLSVTVQGKVFERCELARTLKRLGMDGYRGISLANWMCLAKWESGYNTRAVNYNAGDRSTDYGIFQINSRYWCNDGKTPGAVNACHLSCSALLQDNIADAVACAKRVVRDPQGIRAWVAWRNRCQNRDVRQYVQGCGV | 65 | 99.9 | 112 |
| MKALIVLGLVLLSVTVQGKVFERCELARVLKRLGMDGYRGISLANWMCLAKWESGYNTRATNYNAGDRSTDYGIFQINSRYWCNDGKTPGAVNACHLSCSALLQDNIADAVACAKRVVRDPQGIRAWVAWRNRCQNRDVRQYVQGCGV | 62.9 | 104 | 107 |

Same assay, conditions: Homo sapiens; pH 2.71; Thermal; DSC; glycine-HCl 0.05 M; reversible: yes; structure 1LZ1; whole UniProt chain shown

| Variant | Tm [°C] | unfolding enthalpy (calorimetric) [kcal/mol] | unfolding enthalpy (van 't Hoff) [kcal/mol] |
| --- | --- | --- | --- |
| MKALIVLGLVLLSVTVQGKVFERCELARTLKRLGMDGYRGISLANWMCLAKWESGYNTRAVNYNAGDRSTDYGIFQINSRYWCNDGKTPGAVNACHLSCSALLQDNIADAVACAKRVVRDPQGIRAWVAWRNRCQNRDVRQYVQGCGV | 68.4 | 105 | 114 |
| MKALIVLGLVLLSVTVQGKVFERCELARVLKRLGMDGYRGISLANWMCLAKWESGYNTRATNYNAGDRSTDYGIFQINSRYWCNDGKTPGAVNACHLSCSALLQDNIADAVACAKRVVRDPQGIRAWVAWRNRCQNRDVRQYVQGCGV | 66.2 | 110 | 112 |

Same assay, conditions: Homo sapiens; pH 3.02; Thermal; DSC; glycine-HCl 0.05 M; reversible: yes; structure 1LZ1; whole UniProt chain shown

| Variant | Tm [°C] | unfolding enthalpy (calorimetric) [kcal/mol] | unfolding enthalpy (van 't Hoff) [kcal/mol] |
| --- | --- | --- | --- |
| MKALIVLGLVLLSVTVQGKVFERCELARTLKRLGMDGYRGISLANWMCLAKWESGYNTRAVNYNAGDRSTDYGIFQINSRYWCNDGKTPGAVNACHLSCSALLQDNIADAVACAKRVVRDPQGIRAWVAWRNRCQNRDVRQYVQGCGV | 73 | 108 | 118 |
| MKALIVLGLVLLSVTVQGKVFERCELARALKRLGMDGYRGISLANWMCLAKWESGYNTRATNYNAGDRSTDYGIFQINSRYWCNDGKTPGAVNACHLSCSALLQDNIADAVACAKRVVRDPQGIRAWVAWRNRCQNRDVRQYVQGCGV | 71.4 | 116 | 119 |

Same assay, conditions: Homo sapiens; pH 3.2; Thermal; DSC; glycine-HCl 0.05 M; reversible: yes; structure 1LZ1; whole UniProt chain shown

| Variant | Tm [°C] | unfolding enthalpy (calorimetric) [kcal/mol] | unfolding enthalpy (van 't Hoff) [kcal/mol] |
| --- | --- | --- | --- |
| MKALIVLGLVLLSVTVQGKVFERCELARTLKRLGMDGYRGISLANWMCLAKWESGYNTRAVNYNAGDRSTDYGIFQINSRYWCNDGKTPGAVNACHLSCSALLQDNIADAVACAKRVVRDPQGIRAWVAWRNRCQNRDVRQYVQGCGV | 75.4 | 113 | 121 |

Same assay, conditions: Homo sapiens; pH 2.74; Thermal; DSC; glycine-HCl 0.05 M; reversible: yes; structure 1LZ1; whole UniProt chain shown

| Variant | Tm [°C] | unfolding enthalpy (calorimetric) [kcal/mol] | unfolding enthalpy (van 't Hoff) [kcal/mol] |
| --- | --- | --- | --- |
| MKALIVLGLVLLSVTVQGKVFERCELARALKRLGMDGYRGISLANWMCLAKWESGYNTRATNYNAGDRSTDYGIFQINSRYWCNDGKTPGAVNACHLSCSALLQDNIADAVACAKRVVRDPQGIRAWVAWRNRCQNRDVRQYVQGCGV | 66.8 | 112 | 115 |

Same assay, conditions: Homo sapiens; pH 2.82; Thermal; DSC; glycine-HCl 0.05 M; reversible: yes; structure 1LZ1; whole UniProt chain shown

| Variant | Tm [°C] | unfolding enthalpy (calorimetric) [kcal/mol] | unfolding enthalpy (van 't Hoff) [kcal/mol] |
| --- | --- | --- | --- |
| MKALIVLGLVLLSVTVQGKVFERCELARALKRLGMDGYRGISLANWMCLAKWESGYNTRATNYNAGDRSTDYGIFQINSRYWCNDGKTPGAVNACHLSCSALLQDNIADAVACAKRVVRDPQGIRAWVAWRNRCQNRDVRQYVQGCGV | 68.5 | 115 | 116 |

Same assay, conditions: Homo sapiens; pH 3.22; Thermal; DSC; glycine-HCl 0.05 M; reversible: yes; structure 1LZ1; whole UniProt chain shown

| Variant | Tm [°C] | unfolding enthalpy (calorimetric) [kcal/mol] | unfolding enthalpy (van 't Hoff) [kcal/mol] |
| --- | --- | --- | --- |
| MKALIVLGLVLLSVTVQGKVFERCELARALKRLGMDGYRGISLANWMCLAKWESGYNTRATNYNAGDRSTDYGIFQINSRYWCNDGKTPGAVNACHLSCSALLQDNIADAVACAKRVVRDPQGIRAWVAWRNRCQNRDVRQYVQGCGV | 73.4 | 119 | 120 |

Same assay, conditions: Homo sapiens; pH 2.81; Thermal; DSC; glycine-HCl 0.05 M; reversible: yes; structure 1LZ1; whole UniProt chain shown

| Variant | Tm [°C] | unfolding enthalpy (calorimetric) [kcal/mol] | unfolding enthalpy (van 't Hoff) [kcal/mol] |
| --- | --- | --- | --- |
| MKALIVLGLVLLSVTVQGKVFERCELARVLKRLGMDGYRGISLANWMCLAKWESGYNTRATNYNAGDRSTDYGIFQINSRYWCNDGKTPGAVNACHLSCSALLQDNIADAVACAKRVVRDPQGIRAWVAWRNRCQNRDVRQYVQGCGV | 68.7 | 114 | 117 |

Same assay, conditions: Homo sapiens; pH 3.19; Thermal; DSC; glycine-HCl 0.05 M; reversible: yes; structure 1LZ1; whole UniProt chain shown

| Variant | Tm [°C] | unfolding enthalpy (calorimetric) [kcal/mol] | unfolding enthalpy (van 't Hoff) [kcal/mol] |
| --- | --- | --- | --- |
| MKALIVLGLVLLSVTVQGKVFERCELARVLKRLGMDGYRGISLANWMCLAKWESGYNTRATNYNAGDRSTDYGIFQINSRYWCNDGKTPGAVNACHLSCSALLQDNIADAVACAKRVVRDPQGIRAWVAWRNRCQNRDVRQYVQGCGV | 73 | 117 | 121 |

Same assay, conditions: Homo sapiens; pH 2.5; Thermal; DSC; glycine-HCl 0.05 M; reversible: yes; structure 1LZ1; whole UniProt chain shown

| Variant | Tm [°C] | unfolding enthalpy (calorimetric) [kcal/mol] | unfolding enthalpy (van 't Hoff) [kcal/mol] |
| --- | --- | --- | --- |
| MKALIVLGLVLLSVTVQGKVFERCELARTLKRLGMDGYRGISLANWMCLAKWESGYNTRATNYNAGDRSVDYGIFQINSRYWCNDGKTPGAVNACHLSCSALLQDNIADAVACAKRVVRDPQGIRAWVAWRNRCQNRDVRQYVQGCGV | 58.8 | 98.7 | 104 |

Same assay, conditions: Homo sapiens; pH 2.7; Thermal; DSC; glycine-HCl 0.05 M; reversible: yes; structure 1LZ1; whole UniProt chain shown

| Variant | Tm [°C] | unfolding enthalpy (calorimetric) [kcal/mol] | unfolding enthalpy (van 't Hoff) [kcal/mol] |
| --- | --- | --- | --- |
| MKALIVLGLVLLSVTVQGKVFERCELARTLKRLGMDGYRGISLANWMCLAKWESGYNTRATNYNAGDRSVDYGIFQINSRYWCNDGKTPGAVNACHLSCSALLQDNIADAVACAKRVVRDPQGIRAWVAWRNRCQNRDVRQYVQGCGV | 62.1 | 102 | 107 |
| MKALIVLGLVLLSVTVQGKVFERCELARTLKRLGMDGYRGISLANWMCLAKWESGYNTRATNYNAGDRSADYGIFQINSRYWCNDGKTPGAVNACHLSCSALLQDNIADAVACAKRVVRDPQGIRAWVAWRNRCQNRDVRQYVQGCGV | 61.9 | 103 | 109 |

Same assay, conditions: Homo sapiens; pH 2.85; Thermal; DSC; glycine-HCl 0.05 M; reversible: yes; structure 1LZ1; whole UniProt chain shown

| Variant | Tm [°C] | unfolding enthalpy (calorimetric) [kcal/mol] | unfolding enthalpy (van 't Hoff) [kcal/mol] |
| --- | --- | --- | --- |
| MKALIVLGLVLLSVTVQGKVFERCELARTLKRLGMDGYRGISLANWMCLAKWESGYNTRATNYNAGDRSVDYGIFQINSRYWCNDGKTPGAVNACHLSCSALLQDNIADAVACAKRVVRDPQGIRAWVAWRNRCQNRDVRQYVQGCGV | 64.2 | 105 | 110 |
| MKALIVLGLVLLSVTVQGKVFERCELARTLKRLGMDGYRGISLANWMCLAKWESGYNTRATNYNAGDRSADYGIFQINSRYWCNDGKTPGAVNACHLSCSALLQDNIADAVACAKRVVRDPQGIRAWVAWRNRCQNRDVRQYVQGCGV | 64.4 | 105 | 112 |

Same assay, conditions: Homo sapiens; pH 3; Thermal; DSC; glycine-HCl 0.05 M; reversible: yes; structure 1LZ1; whole UniProt chain shown

| Variant | Tm [°C] | unfolding enthalpy (calorimetric) [kcal/mol] | unfolding enthalpy (van 't Hoff) [kcal/mol] |
| --- | --- | --- | --- |
| MKALIVLGLVLLSVTVQGKVFERCELARTLKRLGMDGYRGISLANWMCLAKWESGYNTRATNYNAGDRSVDYGIFQINSRYWCNDGKTPGAVNACHLSCSALLQDNIADAVACAKRVVRDPQGIRAWVAWRNRCQNRDVRQYVQGCGV | 66.6 | 107 | 113 |
| MKALIVLGLVLLSVTVQGKVFERCELARTLKRLGMDGYRGISLANWMCLAKWESGYNTRATNYNAGDRSADYGIFQINSRYWCNDGKTPGAVNACHLSCSALLQDNIADAVACAKRVVRDPQGIRAWVAWRNRCQNRDVRQYVQGCGV | 66.9 | 108 | 114 |

Same assay, conditions: Homo sapiens; pH 3.1; Thermal; DSC; glycine-HCl 0.05 M; reversible: yes; structure 1LZ1; whole UniProt chain shown

| Variant | Tm [°C] | unfolding enthalpy (calorimetric) [kcal/mol] | unfolding enthalpy (van 't Hoff) [kcal/mol] |
| --- | --- | --- | --- |
| MKALIVLGLVLLSVTVQGKVFERCELARTLKRLGMDGYRGISLANWMCLAKWESGYNTRATNYNAGDRSVDYGIFQINSRYWCNDGKTPGAVNACHLSCSALLQDNIADAVACAKRVVRDPQGIRAWVAWRNRCQNRDVRQYVQGCGV | 68.7 | 111 | 114 |
| MKALIVLGLVLLSVTVQGKVFERCELARTLKRLGMDGYRGISLANWMCLAKWESGYNTRATNYNAGDRSADYGIFQINSRYWCNDGKTPGAVNACHLSCSALLQDNIADAVACAKRVVRDPQGIRAWVAWRNRCQNRDVRQYVQGCGV | 68.9 | 109 | 118 |

Reference: FireProtDB (doi:10.1021/bi9910169)
